B1: FLAG-tagged SIP1 (other, mouse, UniProt Q9R0G7 1-1214, looked up)
chain: MKQPIMADGPRCKRRKQANPRRKNVVNYDNVVDAGSETDEEDKLHIAEDDSLANPLDQDTSPASMPNHESSPHMSQGLLPREEEEEELRESVVEHSWHSGEILQASVAGPEEMKEDYDAMGPEATIQTTINNGTVKNANCTSDFEEYFAKRKLEERDGHAVSIEEYLQRSDTAIIYPEAPEELSRLGTPEANGQEENDLPPGTPDAFAQLLTCPYCDRGYKRLTSLKEHIKYRHEKNEENFSCPLCSYTFAYRTQLERHMVTHKPGTDQHQMLTQGAGNRKFKCTECGKAFKYKHHLKEHLRIHSGEKPYECPNCKKRFSHSGSYSSHISSKKCIGLISVNGRMRNNIKTGSSPNSVSSSPTNSAITQLRNKLENGKPLSMSEQTGLLKIKTEPLDFNDYKVLMATHGFSGSSPFMNGGLGATSPLGVHPSAQSPMQHLGVGMEAPLLGFPTMNSNLSEVQKVLQIVDNTVSRQKMDCKTEDISKLKGYHMKDPCSQPEEQGVTSPNIPPVGLPVVSHNGATKSIIDYTLEKVNEAKACLQSLTTDSRRQISNIKKEKLRTLIDLVTDDKMIENHSISTPFSCQFCKESFPGPIPLHQHERYLCKMNEEIKAVLQPHENIVPNKAGVFVDNKALLLSSVLSEKGLTSPINPYKDHMSVLKAYYAMNMEPNSDELLKISIAVGLPQEFVKEWFEQRKVYQYSNSRSPSLERTSKPLAPNSNPTTKDSLLPRSPVKPMDSITSPSIAELHNSVTSCDPPLRLTKSSHFTNIKAVDKLDHSRSNTPSPLNLSSTSSKNSHSSSYTPNSFSSEELQAEPLDLSLPKQMREPKGIIATKNKTKATSINLDHNSVSSSSENSDEPLNLTFIKKEFSNSNNLDNKSNNPVFGMNPFSAKPLYTPLPPQSAFPPATFMPPVQTSIPGLRPYPGLDQMSFLPHMAYTYPTGAATFADMQQRRKYQRKQGFQGDLLDGAQDYMSGLDDMTDSDSCLSRKKIKKTESGMYACDLCDKTFQKSSSLLRHKYEHTGKRPHQCQICKKAFKHKHHLIEHSRLHSGEKPYQCDKCGKRFSHSGSYSQHMNHRYSYCKREAEEREAAEREAREKGHLEPTELLMNRAYLQSITPQGYSDSEERESMPRDGESEKEHEKEGEEGYGKLRRRDGDEEEEEEEEESENKSMDTDPETIRDEEETGDHSMDDSSEDGKMETKSDHEEDNMEDGM
notes: range 1-1214; Produced in COS1 cells from pCDNA3; tested in total cell extract; also called FLAG-tagged SIP1FS; pCDNA3-SIP1 (Flag-tagged); not shown: FLAG tag at the N-terminus
B2: Myc-tagged full size SIP1 (SIP1FS) (other, mouse, UniProt Q9R0G7 1-1214, looked up)
chain: MKQPIMADGPRCKRRKQANPRRKNVVNYDNVVDAGSETDEEDKLHIAEDDSLANPLDQDTSPASMPNHESSPHMSQGLLPREEEEEELRESVVEHSWHSGEILQASVAGPEEMKEDYDAMGPEATIQTTINNGTVKNANCTSDFEEYFAKRKLEERDGHAVSIEEYLQRSDTAIIYPEAPEELSRLGTPEANGQEENDLPPGTPDAFAQLLTCPYCDRGYKRLTSLKEHIKYRHEKNEENFSCPLCSYTFAYRTQLERHMVTHKPGTDQHQMLTQGAGNRKFKCTECGKAFKYKHHLKEHLRIHSGEKPYECPNCKKRFSHSGSYSSHISSKKCIGLISVNGRMRNNIKTGSSPNSVSSSPTNSAITQLRNKLENGKPLSMSEQTGLLKIKTEPLDFNDYKVLMATHGFSGSSPFMNGGLGATSPLGVHPSAQSPMQHLGVGMEAPLLGFPTMNSNLSEVQKVLQIVDNTVSRQKMDCKTEDISKLKGYHMKDPCSQPEEQGVTSPNIPPVGLPVVSHNGATKSIIDYTLEKVNEAKACLQSLTTDSRRQISNIKKEKLRTLIDLVTDDKMIENHSISTPFSCQFCKESFPGPIPLHQHERYLCKMNEEIKAVLQPHENIVPNKAGVFVDNKALLLSSVLSEKGLTSPINPYKDHMSVLKAYYAMNMEPNSDELLKISIAVGLPQEFVKEWFEQRKVYQYSNSRSPSLERTSKPLAPNSNPTTKDSLLPRSPVKPMDSITSPSIAELHNSVTSCDPPLRLTKSSHFTNIKAVDKLDHSRSNTPSPLNLSSTSSKNSHSSSYTPNSFSSEELQAEPLDLSLPKQMREPKGIIATKNKTKATSINLDHNSVSSSSENSDEPLNLTFIKKEFSNSNNLDNKSNNPVFGMNPFSAKPLYTPLPPQSAFPPATFMPPVQTSIPGLRPYPGLDQMSFLPHMAYTYPTGAATFADMQQRRKYQRKQGFQGDLLDGAQDYMSGLDDMTDSDSCLSRKKIKKTESGMYACDLCDKTFQKSSSLLRHKYEHTGKRPHQCQICKKAFKHKHHLIEHSRLHSGEKPYQCDKCGKRFSHSGSYSQHMNHRYSYCKREAEEREAAEREAREKGHLEPTELLMNRAYLQSITPQGYSDSEERESMPRDGESEKEHEKEGEEGYGKLRRRDGDEEEEEEEEESENKSMDTDPETIRDEEETGDHSMDDSSEDGKMETKSDHEEDNMEDGM
notes: range 1-1214; Produced in COS1 cells from pCS3; tested in total cell extract; also called Myc-tagged SIP1; WT SIP1; not shown: (Myc)6 tag of pCS3 at the N-terminus

Data set [1] concerns SIP1 full size in cells (mouse). Put plainly: cell_activity. To be noted: luciferase reporter; derepressed by E-box mutations. Background: In a reporter assay the amount or activity of a reporter protein is the signal.
Data set [2] addresses B2. In words: EMSA double supershift with anti-Myc and anti-FLAG antibodies, Xbra-WT probe. The procedure:
For supershift experiments, the extracts were incubated with anti-Myc (Santa Cruz) or anti-FLAG (Kodak) antibodies. For competition, an excess of unlabeled double-stranded oligonucleotides was added together with the labeled probe. The binding reaction was loaded onto a 4% polyacrylamide gel (acrylamide/bis-acrylamide, 19:1) prepared in 0.5XTBE buffer. Following electrophoresis, gels were dried, and exposed to X-Ray film. All experiments were repeated at least three times.
To address this experimentally, we used a combination of differently tagged SIP1 in supershift experiments in EMSAs. […] The SIP1 complex generated with Myc-tagged SIP1 has a slightly slower migration than the FLAG-tagged complex (the Myc-tag is longer than the FLAG-tag). […] Using an anti-FLAG antibody, only the lower part of the complex corresponding to FLAG-tagged SIP1 is super-shifted, whereas about 50% of the radioactivity remains within the Myc-tagged SIP1 complex. […] Conversely, incubating the extract with an anti-Myc antibody super-shifted only the […] part of the complex corresponding to Myc-tagged SIP1 whereas 50% of the radioactivity is retained within the FLAG-tagged SIP1 complex. […] However, we detected no other super-shifted band corresponding to a potential double super-shift, viz. super-shifted with both anti-Myc- and anti-FLAG-antibodies.

The target in the data set “FLAG-tagged SIP1” is B1. In words: immunoprecipitation with anti-Myc antibody, detection with anti-FLAG antibody. On the procedure:
Transfected cells were washed with PBS-O (137 mM NaCl, 2.7 mM KCl, 6.5 mM Na₂HPO₄, 1.5 mM KH₂PO₄), collected in detachment buffer (10 mM Tris pH7.5, 1 mM EDTA, 10% glycerol, with protease inhibitors (Protease inhibitor Cocktail tablets, Boehringer Mannheim)) and pelleted by low spin centrifugation. The cells were then solubilized in 10 mM Tris, pH 7.4, 125 mM NaCl, 1% Triton X-100. For direct electrophoretic analysis, gel sample buffer was added to the cell lysates and the samples were boiled. For other experiments, lysates were first subjected to immunoprecipitation with either anti-Myc or anti-FLAG antibodies. Antibodies were added to aliquots of the cell lysates, which were incubated overnight at 4° C. The antibodies and the bound protein(s) of the cell lysate were coupled as a complex to protein A-Sepharose for 2 hours at 4° C. The immunoprecipitates were washed 4 times in NET buffer (50 mM Tris pH 8.0, 150 mM NaCl, 0.1% NP40, 1 mM EDTA, 0.25% gelatin), resolved by SDS-polyacrylamide (7.5%) gel electrophoresis, and electrophoretically transferred to nitrocellulose membranes. […] Immunoreactive bands were detected with an enhanced chemiluminescence reagent (NEN). […]

Turning to E-cadherin promoter reporter, the activity (% decrease of promoter activity) in data set [1] was found to be 80.
Regarding B1, the binding result in data set [2] is reported as “no binding”.
With B2, the binding result in the data set with FLAG-tagged SIP1 was “no binding”.

The values are drawn from patent US20030044809A1, “Nucleic acid binding of multi-zinc finger transcription factors” (published 2003).
